According to patent US9550980B2, “Composition and methods for the production of L-homoalanine” (The Regents of the University of California, priority 2010, dated 2017):

Assays:
[1] = system: 2-ketobutyrate; test: Conversion of fed 2-ketobutyrate to L-homoalanine by E. coli BW25113 overexpressing amination enzymes; assay type: cell-based, Escherichia coli; parameters: L-homoalanine produced: unit not given here
Method: FIG. 2 is a graph comparing different amination enzymes on the production of L-homoalanine. E. coli cultures were inoculated in M9 medium with addition of 10 g/L 2-ketobutyrate and incubated at 37° C. for 24 h. The horizontal axis labels are defined as follows: (A) Wild-type E. coli BW25113; overexpression of (B) transaminase IlvE (C) valine dehydrogenase from Streptomyces avermitilis; (D) valine dehydrogenase from Streptomyces coelicolor, (E) valine dehydrogenase from Streptomyces fradiae; (F) evolved glutamate dehydrogenase GDH1; and (G) evolved glutamate dehydrogenase GDH2. The error bars represent standard deviations from three independent experiments.
In order to check if any endogenous transaminase of E. coli can work on 2-ketobutyrate, we fed 10 g/L 2-ketobutyrate to wildtype E. coli strain BW25113 growing in M9 medium. […] Since the branched-chain amino acid aminotransferase IlvE (see, e.g. Inoue K, et al. (1988) J Biochem 104(5):777-784) is likely to be a functional candidate, we cloned and overexpressed IlvE in BW25113, which increased the production of L-homoalanine to […] (FIG. 2B). […] However, high concentration of glutamate is needed to drive the reaction equilibrium because transamination is a reversible reaction process. Even under such extreme conditions, the conversion rate of transaminating 2-ketobutyrate to L-homoalanine is only 32%.
To test the conversion of 2-ketobutyrate to L-homoalanine, plasmids pZElac_IlvE, pZElac_VDHsa, pZElac_VDHsc, pZElac_VDHsf, pZElac_GDH and pZElac_GDH2 were transformed into BW25113. The transformants were inoculated in M9 medium with 5 g/L yeast extract, 10 g/L ammonium hydrochloride and 20 g/L glucose. Once OD reached ˜1.0, 10 g/L 2-ketobutyrate plus 0.1 mM IPTG were added and incubated at 37° C. for 24 h. Amino acids were quantified as o-phthaldialdehyde (OPA) derivatives by HPLC analysis.

[2] = Enzymatic assay of purified glutamate dehydrogenases, amination of 2-ketobutyrate (NADPH consumption at 340 nm); assay type: biochemical
Method: To characterize the enzymes, both the wild-type glutamate dehydrogenase GDHwt and mutant GDH2 were added an N-terminal 6×His-tag, overexpressed, and purified through Ni-NTA columns. The kinetic parameters for […] of 2-ketoglutarate (cognate substrate) and 2-ketoisovalerate or 2-ketobutyrate (nonnatural substrates) were determined by monitoring the consumption of NADPH at 340 nm (FIG. 6). […] The increase in binding affinity is very helpful since high concentration of 2-ketobutyrate interferes with cellular metabolic activities (see, e.g. Daniel et al. (1983) Mol Gen Genet 190(3):452-458). On the basis of the crystallographic model for the active site of GDH, amino group of K92 hydrogenbonds to the γ-carboxyl group of 2-ketoglutarate and determines the substrate specificity (see, e.g. Stillman et al. (1993) J Mol Biol 234(4):1131-1139). Mutation of lysine to valine increases the hydrophobic character of the binding pocket, which explains why the specificity constant kcat/Km of GDH2 towards 2-ketobutyrate is 50-fold higher than that towards the natural substrate 2-ketoglutarate.
Both gene fragments encoding wildtype glutamate dehydrogenase and GDH2 were amplified using primers GDHbamfwd and GDHbamrev. After digestion with BamHI, the gene fragments were inserted into expression plasmid pQE9 (Qiagen). The resulting expression plasmids were transformed into E. coli strain BL21(DE3) harboring pREP4 (Qiagen). Cells were inoculated from an overnight preculture at 1/100 dilution and grown in 200 mL 2XYT rich medium containing 50 mg/L ampicillin and 25 mg/L kanamycin. At an OD600 of 0.6, recombinant proteins were expressed by induction of the cell cultures with 0.1 mM IPTG, followed by incubation at 30° C. overnight. Overexpressed proteins were then purified with Ni-nitrilotriacetic acid columns. Protein concentration was determined by measuring UV absorbance at 280 nm.
(§1) Enzymatic assay was performed in assay buffer (100 mM Tris buffer, pH 8.0) containing 0.2M NH4Cl, 0.2 mM NADPH, and various concentrations of 2-ketoacids. The reactions were started by adding the purified enzymes, and the consumption of NADPH was monitored at 340 nm (extinction coefficient, 6.22 mM^−1 cm^−1). Kinetic parameters (kcat and Km) were determined by fitting initial velocity data to the Michaelis-Menten equation using Origin.

[3] = system: threonine; test: Production of L-homoalanine from glucose by E. coli overexpressing GDH2 and threonine dehydratases; assay type: cell-based, Escherichia coli; settings: overexpression in BW25113
Source text: FIG. 5A is a graph with horizontal axis labels defined as follows: (1) BW25113; (2) BW25113 with overexpression of GDH2; (3) ATCC98082 with overexpression of TdcB & GDH2; (4) ATCC98082 with overexpression of IlvAEc & GDH2; (5) ATCC98082 with overexpression of IlvABS & GDH2; and (6) ATCC98082 (ArhtA) with overexpression of IlvABS and GDH2. FIG. 5B is a graph showing the yield of L-homolalanine biosynthesis from glucose. The error bars represent standard deviations from three independent experiments.
To test the production of L-homoalanine from glucose, E. coli strain ATCC98082 harboring plasmid pZS_thrO (see, e.g. Zhang et al. (2008) Proc Natl Acad Sci USA 105(52):20653-20658) was transformed with pZElac_tdcB_GDH, pZElac_ilvAEC_GDH and pZElac_ilvABS_GDH. These transformants were subjected to fermentation using the following production medium: 30 g glucose, 17 g (NH4)2SO4, 2 g KH2PO4, 1 g MgSO4.7H2O, 2 g yeast extract, 0.1 g L-valine, 0.01 g FeSO4:7H2O and 0.01 g MnSO4:7H2O per liter. Antibiotics were added appropriately (ampicillin 50 mg/L, spectinomycin 25 mg/L). Overnight 2XYT culture were diluted 25× into fermentation medium and 0.1 mM isopropyl-b-D-thiogalactoside (IPTG) was added to induce protein expression. In shake flask experiments, the culture medium was buffered by addition of 30 g/L CaCO3. Cultures were incubated in 33° C. shaker (250 rpm) for 40-50 h until glucose was consumed.

[4] = system: valine auxotrophic E. coli (ΔavtA, ΔilvE); test: Growth rescue of valine auxotrophic E. coli (ΔavtA, ΔilvE) in M9 minimal medium; assay type: cell-based, Escherichia coli; settings: absence of valine
Source text: FIG. 4A illustrates a binding pocket of Clostridium symbiosum glutamate dehydrogenase (PDB: 1BGV) complexed with its natural substrate glutamate. Residues K89, T193, V377, and S380 are within a radius of 6 Å of the γ-carbon of glutamate. […] The binding pocket is conserved, and the corresponding residues of E. coli GDH are K92, T195, V377, and S380. These residues were subjected to site-saturation mutagenesis with randomized NNK codon. A library size of 2 million members was transformed into valine auxotrophic E. coli and selected for mutants growing in M9 minimal medium. FIG. 4C is a graph showing the growth curve of E. coli (AavtA, AilvE) transformants in minimal medium. −Val means absence of valine. +Val means presence of valine. Or cells are transformed with GDH1 (K92L, T195A, V377A, and S380C mutations) or GDH2 (K92V and T195S mutations) mutant.
To this end, we have developed a selection strategy to evolve GDH. Deletion of transaminase genes avtA and ilvE from the chromosome makes wild-type E. coli valine auxotrophic (see, e.g. Wang et al. (1987) J Bacteriol 169(9):4228-4234), whose growth in minimal medium can be rescued by a mutant GDH active on aminating the valine precursor 2-ketoisovalerate (FIG. 3B). […]

[5] = Enzymatic assay of purified glutamate dehydrogenases, amination of 2-ketoisovalerate (NADPH consumption at 340 nm); assay type: biochemical
Method: (§2) To characterize the enzymes, both the wild-type glutamate dehydrogenase GDHwt and mutant GDH2 were added an N-terminal 6×His-tag, overexpressed, and purified through Ni-NTA columns. The kinetic parameters for […] of 2-ketoglutarate (cognate substrate) and 2-ketoisovalerate or 2-ketobutyrate (nonnatural substrates) were determined by monitoring the consumption of NADPH at 340 nm (FIG. 6). […] The increase in binding affinity is very helpful since high concentration of 2-ketobutyrate interferes with cellular metabolic activities (see, e.g. Daniel et al. (1983) Mol Gen Genet 190(3):452-458). […]
(§3) Both gene fragments encoding wildtype glutamate dehydrogenase and GDH2 were amplified using primers GDHbamfwd and GDHbamrev. […] Protein concentration was determined by measuring UV absorbance at 280 nm.
as §1

[6] = Enzymatic assay of purified glutamate dehydrogenases, amination of 2-ketoglutarate (NADPH consumption at 340 nm); assay type: biochemical
Method: as §2, §3, §1

B1: GDH2: evolved E. coli glutamate dehydrogenase mutant with K92V and T195S mutations (protein, listed as Escherichia coli)
chain: MDQTYSLESFLNHVQKRDPNQTEFAQAVREVMTTLWPFLEQNPKYRQMSLLERLVEPERVIQFRVVWVDDRNQIQVNRAWRVQFSSAIGPYVGGMRFHPSVNLSILKFLGFEQTFKNALTTLPMGGGKGGSDFDPKGKSEGEVMRFCQALMTELYRHLGADTDVPAGDIGVGGREVGFMAGMMKKLSNNTACVFSGKGLSFGGSLIRPEATGYGLVYFTEAMLKRHGMGFEGMRVSVSGSGNVAQYAIEKAMEFGARVITASDSSGTVVDESGFTKEKLARLIEIKASRDGRVADYAKEFGLVYLEGQQPWSLPVDIALPCATQNELDVDAAHQLIANGVKAVAEGANMPTTIEATELFQQAGVLFAPGKAANAGGVATSGLEMAQNAARLGWKAEKVDARLHHIMLDIHHACVEHGGEGEQTNYVQGANIAGFVKVADAMLAQGVI
- productivity of L-homoalanine ([1]; 10 g/L 2-ketobutyrate fed): 5.1 g/L/day
- conversion yield of 2-ketobutyrate to L-homoalanine ([1]; 10 g/L 2-ketobutyrate, no glutamate feeding): 50%
- L-homoalanine produced ([1]; BW25113 transformant, 10 g/L 2-ketobutyrate fed, M9 medium, 37° C., 24 h): 5.1
- decrease in Km on 2-ketobutyrate compared to GDHwt [2]: 4 fold
- increase in kcat on 2-ketobutyrate compared to GDHwt [2]: 2 fold
- kcat towards 2-ketobutyrate ([2]; 100 mM Tris pH 8.0, 0.2M NH4Cl, 0.2 mM NADPH): 90.2 s⁻¹
- Km ([2]; 100 mM Tris pH 8.0, 0.2M NH4Cl, 0.2 mM NADPH, read-out: Km towards 2-ketobutyrate): 8.4 mM
- specificity constant kcat/Km towards 2-ketobutyrate, higher than towards 2-ketoglutarate ([2]; 2-ketobutyrate versus natural substrate 2-ketoglutarate): 50 fold
- L-homoalanine produced from glucose [3]: 0.1 g/L
- rescue of cell growth without valine [4]: successfully rescued the valine auxotrophic phenotype
- kcat towards 2-ketoisovalerate relative to GDHwt [5]: five times higher kcat than GDHwt
- specificity constant kcat/Km towards 2-ketoglutarate, smaller than that of GDHwt [6]: ~3,000 fold
